From paper PMC3202535, “A Novel Metagenomic Short-Chain Dehydrogenase/Reductase Attenuates Pseudomonas aeruginosa Biofilm Formation and Virulence on Caenorhabditis elegans” (PLoS ONE, 2011)

Legend:
[1] = molecular target: BpiB09 (soil metagenome (not yet cultivated microbe)); assay: SEC; gel permeation chromatography during purification (data not shown)
[2] = molecular target: BpiB09 (soil metagenome (not yet cultivated microbe)); assay: AUC; analytical ultracentrifugation of recombinant BpiB09 and its mutants; conditions not given
[3] = molecular target: BpiB09 (soil metagenome (not yet cultivated microbe)); assay: crystal structure; BpiB09 with NADP+; crystals from 0.1 M citric acid pH 4.5 and 1.5 M LiSO4 at 292 K; space group I422, four copies per asymmetric unit, tetramer completed by a crystallographic dyad; 2.4 Å
BpiB09 [4] = molecular target: T1, BpiB09 (uncultured bacterium Bio5, UniProt B2BKB1); assay: X-ray crystal structure, […] A; assay type: binding; settings: 1 mM NADP+ added before crystallisation; 0.1 M citric acid pH 4.5, 1.5 M LiSO4; 292 K; nucleotide site; modelled as partial NADP+, nicotinamide half poorly defined
T1 construct: about 720 bp gene; His-tag purified from E. coli BL21 DE3 (pET-19b; also cloned in pET-21a); homotetramer
T1 sequence (B2BKB1 entry or part of it): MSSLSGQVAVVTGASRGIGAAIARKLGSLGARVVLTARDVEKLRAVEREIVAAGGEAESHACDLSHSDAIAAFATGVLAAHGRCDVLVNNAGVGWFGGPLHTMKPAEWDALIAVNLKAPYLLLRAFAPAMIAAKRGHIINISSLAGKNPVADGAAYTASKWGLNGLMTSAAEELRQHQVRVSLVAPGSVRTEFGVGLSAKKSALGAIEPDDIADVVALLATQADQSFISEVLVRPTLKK

BpiB09 [5] = molecular target: T1, BpiB09; assay: HPLC-MS of reduction to 3-hydroxy-C12-HSL; assay type: biochemical; settings: 1 mM NADPH, 100 mM potassium phosphate pH 7.0, 20% DMSO, 30 C, 16 h; 4 mM substrate (5 mM in Results)

BpiB09 (enzyme)
stoichiometry N [1]: 4
stoichiometry N [2]: 4
stoichiometry N [3]: 4

NC(=O)c1ccc[n+]([C@@H]2O[C@H](COP(=O)(O)OP(=O)(O)OC[C@H]3O[C@@H](n4cnc5c(N)ncnc54)[C@H](OP(=O)(O)O)[C@@H]3O)[C@@H](O)[C@H]2O)c1 [NADP+]
X-ray crystal structure, 2.4 A (BpiB09 [4]): adding NADP+ prior to crystallization resulted in a higher occupancy of the bound NADP+

CCCCCCCCCC(=O)CC(=O)N[C@H]1CCOC1=O [3-oxo-C12-HSL, N-(3-oxo-dodecanoyl)-L-homoserine lactone]
HPLC-MS of reduction to 3-hydroxy-C12-HSL (BpiB09 [5]): analyses of purified enzyme resulted in a turnover of 3-oxo-C12-HSL to 3-hydroxy-C12-HSL
